Data reported in the supplement of paper PMC9233669.
Fewer inactive variants are shown than the library holds.

How the values were obtained:
biotinyl-Trp-oxazolone = test: self-aminoacylation, catalytic enhancement (BWO) (fold over background); higher = more active; k-Seq, kA / k0A0; sequences stand for … in GGGAAUGGAUCCACAUCUACGAAUUC…UUCACUGCAGACUUGACGAAGCUG
Procedure, shortened: (§1)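 Mutagenized RNA pools (0.43 μM; 21-nt variable region) were treated with 2–1250 μM of each biotinyl-aminoacyl-oxazolone. Conditions were 50 μL HEPES/NaCl/KCl/MgCl2/CaCl2 buffer, 5% acetonitrile, pH 6.9–7.0, room temperature, 90 minutes. Catalytic enhancement, the median kA relative to the uncatalyzed rate, was derived from streptavidin capture, qPCR and Illumina sequencing.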

biotinyl-Val-oxazolone = test: self-aminoacylation, catalytic enhancement (BVO) (fold over background); higher = more active; k-Seq, kA / k0A0; sequences stand for … in GGGAAUGGAUCCACAUCUACGAAUUC…UUCACUGCAGACUUGACGAAGCUG
Procedure, shortened: as §1

biotinyl-Met-oxazolone = test: self-aminoacylation, catalytic enhancement (BMO) (fold over background); higher = more active; k-Seq, kA / k0A0; sequences stand for … in GGGAAUGGAUCCACAUCUACGAAUUC…UUCACUGCAGACUUGACGAAGCUG
Procedure, shortened: as §1

biotinyl-Leu-oxazolone = test: self-aminoacylation, catalytic enhancement (BLO) (fold over background); higher = more active; k-Seq, kA / k0A0; sequences stand for … in GGGAAUGGAUCCACAUCUACGAAUUC…UUCACUGCAGACUUGACGAAGCUG
Procedure, shortened: as §1

biotinyl-Phe-oxazolone = test: self-aminoacylation, catalytic enhancement (BFO) (fold over background); higher = more active; k-Seq, kA / k0A0; sequences stand for … in GGGAAUGGAUCCACAUCUACGAAUUC…UUCACUGCAGACUUGACGAAGCUG
Procedure, shortened: as §1

biotinyl-Ile-oxazolone = test: self-aminoacylation, catalytic enhancement (BIO) (fold over background); higher = more active; k-Seq, kA / k0A0; sequences stand for … in GGGAAUGGAUCCACAUCUACGAAUUC…UUCACUGCAGACUUGACGAAGCUG
Procedure, shortened: as §1

Sequence | self-aminoacylation (biotinyl-Trp-oxazolone) | self-aminoacylation (biotinyl-Val-oxazolone) | self-aminoacylation (biotinyl-Met-oxazolone) | self-aminoacylation (biotinyl-Leu-oxazolone) | self-aminoacylation (biotinyl-Phe-oxazolone) | self-aminoacylation (biotinyl-Ile-oxazolone)
CUACUUCAAACAAUCGGUGUA [Fam1A.1 aminoacylation ribozyme variant] | 0.989 | 0.946 | 1.05 | 1.12 | 1.33 | 0.983
UGACUUCAAACAAUCGGUCUG [Fam1A.1 aminoacylation ribozyme variant] | 39.2 | 1.73 | 2.05 | 2.53 | 96.8 | 1.73
AAGUGUGCUAAUAUUCGCAAG [Fam3.1 aminoacylation ribozyme variant] | 2.22 | 1.53 | 1.58 | 1.51 | 1.63 | 1.92
AUUACCCAGGUCAUCGCGUGA [Fam2.1 aminoacylation ribozyme variant] | 19.3 | 10.3 | 20.3 | 22.9 | 156 | 8.22
AUUCGCCUAGGUCCUCGGGUG [Fam2.2 aminoacylation ribozyme variant] | 6.48 | 4.56 | 6.35 | 8.24 | 46.8 | 4.84
AUUCACAUAGGUCAUCGGGUG [Fam2.2 aminoacylation ribozyme variant] | 7.83 | 5.09 | 8.47 | 10.6 | 65.2 | 5.09
GCAAACUUCAAGCAAUCGGUC [Fam1B.1 aminoacylation ribozyme variant] | 19.5 | 2.17 | 2.05 | 2.47 | 21.7 | 2.13
AUUACACUGGUCAUCGACUGA [Fam2.1 aminoacylation ribozyme variant] | 0.546 | 0.965 | 0.596 | 0.807 | 1.11 | 1
AUUACCCUGGUCAUCAAAUGA [Fam2.1 aminoacylation ribozyme variant] | 0.735 | 0.806 | 1.14 | 0.969 | 1.1 | 1.1
AAGUUAGCUAAUAGUCGCAUG [Fam3.1 aminoacylation ribozyme variant] | 1.64 | 1.34 | 1.07 | 1.97 | 3 | 1.83
AAGUCUGCUAAUAGCCGCAAG [Fam3.1 aminoacylation ribozyme variant] | 3.25 | 1.02 | 1.13 | 0.989 | 8.57 | 1.11
AUUCACCUAGGUCAUGGGGUA [Fam2.2 aminoacylation ribozyme variant] | 1.56 | 1.83 | 2.13 | 1.88 | 1 | 1.96
CUACGUCAAACAUUCGGUCUG [Fam1A.1 aminoacylation ribozyme variant] | 3.07 | 3.79 | 2.93 | 2.5 | 12.8 | 2.87
CCACACUUGAAGCAAUCGGUA [Fam1B.1 aminoacylation ribozyme variant] | 0.948 | 1.25 | 0.976 | 1.13 | 0.696 | 1.07
CCAUACUUCAAGCAAUUGGUC [Fam1B.1 aminoacylation ribozyme variant] | 0.625 | 0.762 | 0.689 | 0.667 | 1.13 | 0.743
CUUUACCUAGGUCAUCGGGUG [Fam2.2 aminoacylation ribozyme variant] | 5.46 | 3.71 | 5.23 | 7.1 | 25.3 | 3.85
AUUACUCUGGUCAGCGAGUGA [Fam2.1 aminoacylation ribozyme variant] | 5.85 | 3.13 | 5.21 | 5.83 | 17.6 | 3.29
CCACACUUCAAUCAAGCGGUC [Fam1B.1 aminoacylation ribozyme variant] | 0.769 | 0.811 | 0.634 | 0.694 | 0.972 | 0.709
CUCCUUCAAGCAAUCGGUCUG [Fam1A.1 aminoacylation ribozyme variant] | 10.2 | 1.09 | 1.2 | 1.58 | 14.1 | 1.09
AUGCACCCAGGUCAUCGGGUG [Fam2.2 aminoacylation ribozyme variant] | 5.32 | 3.89 | 3.42 | 4.35 | 21 | 3.29
AAGUUUGCUAAUAGUGGGAAG [Fam3.1 aminoacylation ribozyme variant] | 0.598 | 1.03 | 0.971 | 0.876 | 1.48 | 0.841
CUCCUUCAAACCAUCGGUCUG [Fam1A.1 aminoacylation ribozyme variant] | 0.905 | 0.977 | 0.805 | 0.781 | 1.69 | 0.815
AUUACCAUGGUCAUCUAGUGA [Fam2.1 aminoacylation ribozyme variant] | 15.6 | 5.38 | 11.1 | 11.1 | 59.9 | 5.41
AAGUUUGCUAAAAGUCACAAG [Fam3.1 aminoacylation ribozyme variant] | 2 | 1.07 | 0.971 | 0.919 | 3.25 | 1.35
AUUCACCUAUGUCGUCGGGUG [Fam2.2 aminoacylation ribozyme variant] | 1.3 | 1.15 | 1.28 | 1.44 | 6.21 | 1.19
AAGUUUACUAAUAGUCGCUAG [Fam3.1 aminoacylation ribozyme variant] | 1.69 | 1.23 | 1.29 | 1.26 | 2.43 | 1.39
